Here are results for 21 sequences from the DeepSol protein solubility set.

This series in a line: soluble on expression in E. coli; label from the status in PepcDB or PDB records.
On to “MGSDKIHHHHHHMSSVGDFEEIILHDLKPYYHVPGAIHSEGITFVKETGTLLWVDIFKGEVHKVEDIEQPESSHSFFSISRANYGKNASIEYPPNPDELKESVGCIFPILDGASQNEIKQVLFGSKFGIGKLDFSKSEWEYVILYSECPELSTDRAYKLRSNDGNVSPDGKYIYVGLMSDFPFDLEPIGCLLRVDLLAHKIELVWNCLLIPNAIHWDESDQKTMYVTDSLNFTIWKCPGGDLLKRDELIDVKNSNNQSFESPEPDGSAIWFSKDGKHSGFLFITVWSTSKVQMFDLTNGKLLKEFILPEQTPRVSCCCFVGKDLFVTTANAEINDAVRTNTDKNGGCIYKIPNVLDGNVPLESTKRQPLH”, for which the “soluble on expression in E. coli” value is “not soluble”.
The value for “MSLRDSRYYCRLFSPAAVRGGIRRISAIYLNPSAFMSSLPITDRKIRFGLVGCGRISKNHIGAIAQHGDRAELVEICDTNPEALQAAEAATGARPFSSLSDMLAQGNADALVLATPSGLHPWQAIEVAQAGRHVVSEKPMATRWEDGKRMVKACDEAGVRLFVVKQNRRNATLQLVKKAIEQGRFGRIYMVTVNVFWTRPQEYYDAARWRGKWEWDGGAFMNQASHYVDLLDWLVGPVESVYAYTATLARRIEAEDTGVAALRWRHGAMGSINVTMLTYPQNLEGSITILGEKGTVRVGGVAVNRIDEWKFAEPHPDDDKIREANYETTSVYGFGHPLYYDNVINCLRGDCEPETDGREGLQSLALLTAIYRSARDGVRIPLPLDEGHHHHHH” was “soluble”.
The value for “NLPNIVILATGGTIAGSAAANTQTTGYKAGALGVETLIQAVPELKTLANIKGEQVASIGSENMTSDVLLTLSKRVNELLARSDVDGVVITHGTDTLDESPYFLNLTVKSDKPVVFVAAMRPATAISADGPMNLYGAVKVAADKNSRGRGVLVVLNDRIGSARFISKTNASTLDTFKAPEEGYLGVIIGDKIYYQTRLDKVHTTRSVFDVTNVDKLPAVDIIYGYQDDPEYMYDASIKHGVKGIVYAGMGAGSVSKRGDAGIRKAESKGIVVVRSSRTGSGIVPPDAGQPGLVADSLSPAKSRILLMLALTKTTNPAVIQDYFHAY” was “soluble”.
The result for “MGSDKIHHHHHHMIHLSPNDLPVGAPLPWSLLDGDGNLVLGSGNVIPDTRDVALVFRHGELCRLEADSGGDPQDDPLPRGPLGLQVGTLLHVKQPGDNSRAAASRLIGFVEQGLFMTWPQLGGRDLPVQAGDTLLLRGFSGRVIHSFTSTITAVCRSPFRYLVLSAPSQLDQMPVRKAARVPTRMAAYMTQSQESFQEADQDAFSAEMANGAARLVMVSDLSTGGAQIHAAGPAPVIGSRVQLRFRLRTASLDSEIVADAWVRAVTSDTADAEFPSFGISFDVLGEREMTLLQCFIYEQLLTSSGLGVHR” reads “not soluble”; that for “MAHHHHHHMGTLEAQTQGPGSMFKLTGRKALVTGATGGIGEAIARCFHAQGAIVGLHGTREDKLKEIAADLGKDVFVFSANLSDRKSIKQLAEVAEREMEGIDILVNNAGITRDGLFVRMQDQDWDDVLAVNLTAASTLTRELIHSMMRRRYGRIINITSIVGVVGNPGQTNYCAAKAGLIGFSKALAQEIASRNITVNCIAPGFIKSAMTDKLNEKQKEAIMAMIPMKRMGIGEEIAFATVYLASDEAAYLTGQTLHINGGMAMI”, “soluble”; that for “EERRVAYPVLRELTERTGETSALMVWNGNESMCVEQIPSRHQVKHLAPLGARYNEALSSSVQVFLASENEDRVRQLLRSGSITLTGVDEDAVEAYLLRLKESMERGWAVNFGETSIEEVGVASPVYDHRGNMVASVLIPAPKFRVSQDTLNSLGEACAAAAAKVTTRLGGRAPH”, “soluble”.
On to “MGSWGMEALESDEGLDLINWVEEQLQDDSTFDAESIVQRLSQHEDLFGFQGDEEFLYDNNVIGLVELIIQKAAGEKITSSKQIDQLDSYRLTSIFSKKLQGRLQTIDDTHEWIMLFEGRAREKAKAYLIEITDKLRVVKTTA”, for which the “soluble on expression in E. coli” value is listed as “soluble”.
For “MTIHLSSLGQVYLVCGKTDMRQGIDSLAYLVKTHFELDPFSGQVFLFCGGRKDRFKALYWDGQGFWLLYKRFENGKLTWPSTEKDVKALTPEQVDWLMKGFSITPKINLSESRDFY”, the “soluble on expression in E. coli” value was “not soluble”.
For “MIHVGTCGFCEAREKYFKDFDAVEVQQTFYKVLQEKTLERWRKKAPEEFTFSIKAFQGVTHPSNSPTWRRSNVKPSKNVGLLRPTNEVLHYWRITLKEAKVLGARFILIQLPRSFKEGEESFENAEKFFNAIDRGDFEIGVELRGWSEKGVKRFVREFDVIDVTDPLLRIPLHKGSVNYYRLHGKYEGGKIIYNHSYSDEELKKIRERVLGWNVEESFVFFNNTSMCRDAKRFKLILDLH”, the “soluble on expression in E. coli” value was “soluble”.
Regarding “MEAKLQVGVLGFGTVGSGVIHILEEHQEKISQVTGYHISVKKVLVRDLEKNRRYETKGFELTTNPSDVLDDPEIAVVVEVMGSITTAREYILQALKAGKHVVTANKDLIALHGDELVAVAQANNCDLFYEASVAGGIPILRTIVNSLAADKIQKVMGIVNGTTNFMLTKMTTEKKSYEEVLAEAQALGFAESDPTNDVDGIDAARKMVIMTRLAFGMNVNLDNVETSGIRGISPEDIEVAYQLGYKIKLVGTAEETNGTVNVNVGPVLLPKAHPLAGVNYENNAVFVTGAAVGETMFYGPGAGELPTATSVVSDLITVAKNSRLGTNGNAFNSYKHETKHTPKEQVFSKYYLRLTMDDKTGTFLKLTQIFAEAGVGFDKILQQPYDDFTATVVIVTHSTSQAQLEQAITRVKNEPEMQMLAKYSVVEG”, the “soluble on expression in E. coli” value was “soluble”.
For the sequence “MKINNGPVLCPHCGCLSAYYEIDRLAAIREKVNKEGGSAAWDSTLQAHKKKAFCLMCHKSIDEVVIGQSDAPESTK”, the “soluble on expression in E. coli” value was “not soluble”.
The result for “MDQENERNISRLWRAFRTVKEMVKDRGYFITQEEVELPLEDFKAKYCDSMGRPQRKMMSFQANPTEESISKFPDMGSLWVEFCDEPSVGVKTMKTFVIHIQEKNFQTGIFVYQNNITPSAMKLVPSIPPATIETFNEAALVVNITHHELVPKHIRLSSDEKRELLKRYRLKESQLPRIQRADPVALYLGLKRGEVVKIIRKSETSGRYASYRICM” reads “soluble”; that for “VSAPDSPALAGMSIGAVLDLLRPDFPDVTISKIRFLEAEGLVTPRRASSGYRRFTAYDCARLRFILTAQRDHYLPLKVIRAQLDAQPDGELPPFGSPYVLPRLVPVAGDSAGGVGSDTASVSLTGIRLSREDLLERSEVADELLTALLKAGVITTGPGGFFDEHAVVILQCARALAEYGVEPRHLRAFRSAADRQSDLIAQIAGPLVKAGKAGARDRADDLAREVAALAITLHTSLIKSAVRDVLHR”, “soluble”; that for “MSLTTHGKPVLVATDLSARTDRAVDRATQLAGEWGVRLIVLHAIEPDSRLHARPELANQAMREVLADPEADVDILPALDLAPTAIVEAAKSADCGLIVTGVARFNHVGDYFIGTAVDHVVRHATVPVLVVKQRPHNAYRTIVVATDYSSCSRLALLTAAEFFPDAAIHLVHAYHVPYEAWLRSDEVREDVTREAQRELDAFVLDPAIPANVRQRISAKLVYGETHTVLSSTAYELGADLLVLGTHGSGGYFAAVMGRMAESLLRCADIDTLVVREIGSTGSEGHHHHHH”, “soluble”.
The result for “EELEYKGMNTLQISNVDDLISFYQYADDRIPLISGHRGGRGKGYPENSMETFENTLSYTPATFEIDPRLTKDSVIVLFHDDTLERTSNGTGKVSDYTWEELQNFRLKDPEGNITNYRIPTLEEAIRWARGKTILILDKKDVPMERTAQLITDMQAEPYVMITVHDGASARFFYEKNPNFMFEAFVKTKEAVQDYEDNGIPWSHIMAYVGPKITPEVREVIDMLHERGVMCMISTAPSDDKLSTPESRAEAYRMIIRQGVDIIESDRPIEVAEAISSLIPVSSSKGKFFSTL” reads “soluble”; that for “SLYMDTAVSPFYFVSNAPRELLDGVSQTLASRDQLELENRALRQELLLKNSELLMLGQYKQENARLRELLGSPLRQDEQKMVTQVISTVNDPYSDQVVIDKGSVNGVYEGQPVISDKGVVGQVVAVAKLTSRVLLICDATHALPIQVLRNDIRVIAAGNGCTDDLQLEHLPANTDIRVGDVLVTSGLGGRFPEGYPVAVVSSVKLDTQRAYTVIQARPTAGLQRLRYLLLLWGADRNGANPMTPEEVHRVANERLMQMMPQVLPSPDAMGPKLPEPATGIAQPTPQQPATGNAATAPAAPTQPAANRSPQRATPPQSGAQPPARAPGGQ”, “soluble”.
The result for “MLIKLGTELTKEEYVTRYMRNFQKLLLLGDRPKVLTNREEQLLQYEKELCVLFYEQFIKKHHRAPDEATLDDQVKANFIERSKIFARSPLVMDEGNFTQAHIGQLKRLRELRMEDYLPDNYTHILQREEELARNYFRKHDDYPFGYECLCISRSREVVNQGLEKLLEGFYDSYQVYYRRYRKNG” reads “not soluble”; that for “MTDYGDADKYVNDESIEMAWAIKAGERSEVHMNLIMRCDTRVLRLNKHQDAILAAFRSSFPDLNVEEVTTSLLKDGGAKETWREFCEQFKDIVDDYSMGTLMRIHASKAYSPENTVVVPRIIYLAIEMARNVEGVNEKNKEAYTAHRNSLASL”, “soluble”; that for “MSLTILNHTLGFPRVGLRRELKKAQESYWAGNSTREELLAVGRELRARHWDQQKQAGIDLLPVGDFAWYDHVLTTSLLLGNVPARHQNKDGSVDIDTLFRIGRGRAPTGEPAAAAEMTKWFNTNYHYMVPEFVKGQQFKLTWTQLLDEVDEALALGHKVKPVLLGPVTWLWLGKVKGEQFDRLSLLNDILPVYQQVLAELAKRGIEWVQIDEPALVLELPQAWLDAYKPAYDALQGQVKLLLTTYFEGVTPNLDTITALPVQGLHVDLVHGKDDVAELHKRLPSDWLLSAGLINGRNVWRADLTEKYAQIKDIVGKRDLWVASSCSLLHSPIDLSVETRLDAEVKSWFAFALQKCHELALLRDAVNSGDTAALAEWSAPIQARRHSTRVHNPAVEKRLAAITAQDSQRANVYEVRAEAQRARFKLPAWPTTTIGSFPQTTEIRTLRLDFKKGNLDANNYRTGIAEHIKQAIVEQERLGLDVLVHGEAERNDMVEYFGEHLDGFVFTQNGWVQSYGSRCVKPPIVIGDISRPAPITVEWAKYAQSLTDKPVKGMLTGPVTILCWSFPREDVSRETIAKQIALALRDEVADLEAAGIGIIQIDEPALREGLPLRRSDWDAYLQWGVEAFRINAAVAKDDTQIHTHMCYCEFNDIMDSIAALDADVITIETSRSDMELLESFEEFDYPNEIGPGVYDIHSPNVPSVEWIEALLKKAAKRIPAERLWVNPDCGLKTRGWPETRAALANMVQAAQNLRRGEGHHHHHH”, “soluble”.
In the case of “KIRDELRAERTFIDQALDSLADIFYVIDSAGTVQRCNEQFATLAGYADEKISDLDALSLFPEEEREGVSEAIEEALTTGQSTIEAEFRTAAGKRVPHEFTADRLTDQDGDLIGLVGTGRDIS”, the “soluble on expression in E. coli” value is given as “not soluble”.
On to “GSHMARYDSLLQALGNTPLVGLQRLSPRWDDGRDGPHVRLWAKLEDRNPTGSIKDRPAVRMIEQAEADGLLRPGATILEPTSGNTGISLAMAARLKGYRLICVMPENTSVERRQLLELYGAQIIFSAAEGGSNTAVATAKELAATNPSWVMLYQYGNPANTDSHYCGTGPELLADLPEITHFVAGLGTTGTLMGTGRFLREHVANVKIVAAEPRYGEGVYALRNMDEGFVPELYDPEILTARYSVGAVDAVRRTRELVHTEGIFAGISTGAVLHAALGVGAGALAAGERADIALVVADAGWKYLSTGAYAGSLDDAETALEGQLWA”, for which the “soluble on expression in E. coli” value is “soluble”.
